What was measured:
PKC-δ (purified isoform) [1] = target: T1, PKC-δ (purified isoform); assay: competitive ELISA, coated purified PKC-δ, vs anti-PKC δ (SC-213); PRE 50 µM
T1 construct: also called PKC-delta
Outline: (§1)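 Wells were coated overnight at 4 °C with purified PKC isoform at 250 ng/mL in PBSN, blocked 1 h at 37 °C, and then given PRE diluted in PBSN from a 20 mM DMSO stock for 1 h at room temperature. The AP-conjugated anti-rabbit antibody was developed with pNPP (pH 9.8) and read at 405 nm.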

PKC-α (purified isoform) = target: T2, PKC-α (purified isoform) (Homo sapiens (Human), UniProt P17252 2-672); assay: competitive ELISA, coated purified PKC-α, vs anti-PKC α (SC-208); PRE 200 µM
T2 construct: also called purified PKC-alpha; commercially purified PKC-alpha
Outline: as §1

PKC-δ (purified isoform) [2] = target: T1, PKC-δ (purified isoform); assay: competitive ELISA, coated purified PKC-δ, vs anti-PKC δ (SC-213); PRE 200 µM
Outline: as §1

[3] = target: T3, PKC-βI (purified isoform) (Homo sapiens (Human), UniProt P05771 2-671); assay: competitive ELISA, coated purified PKC-βI, vs anti-PKC βI (SC-209); PRE 50 µM
T3 construct: also called PKC-beta I; PKC beta 1

[4] = target: T3, PKC-βI (purified isoform); assay: competitive ELISA, coated purified PKC-βI, vs anti-PKC βI (SC-209); PRE 200 µM
[5] = target: T4, PKC-βII (purified isoform) (Homo sapiens (Human), UniProt P05771 2-621); assay: competitive ELISA, coated purified PKC-βII, vs anti-PKC βII (SC-210); PRE 100 µM
T4 construct: also called PKC-beta II; PKC beta 2
Method: (§2) Greiner 96 well ELISA plates were coated with the appropriate PKC isoform diluted in PBSN (PBS with Calcium/Magnesium+0.05% Sodium azide w/w). 50 μL/well at 250 ng/mL was used. Control wells contained PBSN only. Plates were incubated overnight at 4° C.
(§3) The plates were washed 3 times with 200 μL of dH₂O per well, then 100 μL of blocking solution was added per well and the plate incubated for 1 h at 37° C. The washing steps with dH₂O were repeated and 50 μL of the appropriate PRE solution (PRE stock solution [20 mM in DMSO] diluted in PBSN) was added and the plate incubated for 1 h at room temperature.
(§4) 50 μL of 1:1000 dilution of Alkaline Phosphatase (AP) conjugated antibody (anti-rabbit for all except zeta, which was anti-goat) was then added and the plate incubated for 1 h at room temperature. Washing with dH₂O was then repeated. Finally, 100 μL of pNPP solution in pNPP buffer (2 mM MgCl₂, 100 mM Sodium bicarbonate in water, pH 9.8) was added to all wells and incubated for 8 minutes for α, βI, βII ε, and ζ, or for 15-20 mins for δ (until sufficient coloration is observed). The reaction was stopped by addition of Stop solution (2N NaOH) and the absorbance at 405 nm was read on a Galaxy Plate reader.

[6] = target: T4, PKC-βII (purified isoform); assay: competitive ELISA, coated purified PKC-βII, vs anti-PKC βII (SC-210); PRE 200 µM
Method: as §2, §3, §4

[7] = target: T5, PKC-ε (endogenous, IMR-32 lysate) (human, UniProt Q02156 1-737); assay: WB competition Protocol B, IMR-32 extract, vs anti-PKC-ε Ab; PKC-ε Band 1; 50 µg peptide
T5 construct: Band 1 and Band 2 (alternate splicing variants, not identified further) are kept under one molecule; the band is named in the assay field of each row; also called PKC-epsilon; PKC-ε Band 1
T5 sequence (looked up): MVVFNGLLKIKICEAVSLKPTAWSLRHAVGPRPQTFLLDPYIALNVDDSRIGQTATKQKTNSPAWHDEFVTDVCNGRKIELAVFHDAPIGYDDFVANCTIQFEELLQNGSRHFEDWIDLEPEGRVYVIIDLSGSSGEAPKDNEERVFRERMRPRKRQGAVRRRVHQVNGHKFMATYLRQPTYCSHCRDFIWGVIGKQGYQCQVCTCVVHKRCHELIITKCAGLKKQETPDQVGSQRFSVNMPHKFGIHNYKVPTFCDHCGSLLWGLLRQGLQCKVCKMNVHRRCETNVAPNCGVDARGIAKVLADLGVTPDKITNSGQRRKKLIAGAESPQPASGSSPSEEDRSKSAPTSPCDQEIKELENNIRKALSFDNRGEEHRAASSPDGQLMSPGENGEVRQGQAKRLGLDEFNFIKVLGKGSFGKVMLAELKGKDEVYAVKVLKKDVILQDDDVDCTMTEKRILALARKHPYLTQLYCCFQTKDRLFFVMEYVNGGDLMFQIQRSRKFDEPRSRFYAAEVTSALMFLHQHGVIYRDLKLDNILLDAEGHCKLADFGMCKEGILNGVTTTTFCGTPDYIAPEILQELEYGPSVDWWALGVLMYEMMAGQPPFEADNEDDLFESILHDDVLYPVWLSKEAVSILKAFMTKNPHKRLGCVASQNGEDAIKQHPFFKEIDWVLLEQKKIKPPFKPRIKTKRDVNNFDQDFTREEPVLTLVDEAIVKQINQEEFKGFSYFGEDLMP
Method: (§5) The ability of the peptides PRE 2 and PRE 3 (see Table 4) to interfere with the binding of a PKC-α-specific polyclonal antibody (Santa Cruz Biotechnology, Inc.) to PKC-α was determined using a modified version of the protocol outlined above in which the test peptide was added directly to the cell extract prior to electrophoresis at a concentration of either 5× or 15× the concentration of the protein applied to each well of the gel for the Western blots (20 μg).
(§6) Peptides PRE 2, PRE 3 and PRE 4 (see Table 4) were tested for their ability to interfere with the binding of isoform-specific polyclonal antibodies (Santa Cruz Biotechnology, Inc.) to […] using the general protocol described in Example 3. Two bands, representing alternate splicing variants of PKC-ε, were identified on the Western blot using this anti-PKC-ε antibody.

[8] = target: T5, PKC-ε (endogenous, IMR-32 lysate); assay: WB competition Protocol B, IMR-32 extract, vs anti-PKC-ε Ab; PKC-ε Band 2; 20 µg peptide
Method: as §5, §6

[9] = target: T5, PKC-ε (endogenous, IMR-32 lysate); assay: WB competition Protocol B, IMR-32 extract, vs anti-PKC-ε Ab; PKC-ε Band 1; 100 µg peptide
Method: as §5, §6

[10] = target: T5, PKC-ε (endogenous, IMR-32 lysate); assay: WB competition Protocol B, IMR-32 extract, vs anti-PKC-ε Ab; PKC-ε Band 2; 100 µg peptide
Method: as §5, §6

T1 sequence (Q05655 whole entry, stated change not applied, canonical isoform): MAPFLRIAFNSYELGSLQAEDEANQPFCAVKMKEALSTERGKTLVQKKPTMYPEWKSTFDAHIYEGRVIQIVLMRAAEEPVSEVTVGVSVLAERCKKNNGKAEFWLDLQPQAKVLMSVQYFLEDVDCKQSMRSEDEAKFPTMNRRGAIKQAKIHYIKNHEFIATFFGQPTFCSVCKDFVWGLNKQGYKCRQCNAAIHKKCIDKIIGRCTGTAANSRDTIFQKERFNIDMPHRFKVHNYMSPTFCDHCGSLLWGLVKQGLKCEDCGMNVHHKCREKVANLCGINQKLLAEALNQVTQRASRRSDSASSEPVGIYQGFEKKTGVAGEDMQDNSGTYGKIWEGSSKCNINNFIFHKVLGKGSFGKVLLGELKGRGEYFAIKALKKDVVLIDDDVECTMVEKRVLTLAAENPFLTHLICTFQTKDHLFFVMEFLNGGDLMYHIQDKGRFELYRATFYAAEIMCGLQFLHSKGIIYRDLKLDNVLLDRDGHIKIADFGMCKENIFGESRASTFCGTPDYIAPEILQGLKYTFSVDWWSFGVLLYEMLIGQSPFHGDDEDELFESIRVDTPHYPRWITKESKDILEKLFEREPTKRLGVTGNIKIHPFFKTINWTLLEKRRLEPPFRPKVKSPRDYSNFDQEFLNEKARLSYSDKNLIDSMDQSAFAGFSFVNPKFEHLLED
T3 sequence (P05771 2-671 limits assumed): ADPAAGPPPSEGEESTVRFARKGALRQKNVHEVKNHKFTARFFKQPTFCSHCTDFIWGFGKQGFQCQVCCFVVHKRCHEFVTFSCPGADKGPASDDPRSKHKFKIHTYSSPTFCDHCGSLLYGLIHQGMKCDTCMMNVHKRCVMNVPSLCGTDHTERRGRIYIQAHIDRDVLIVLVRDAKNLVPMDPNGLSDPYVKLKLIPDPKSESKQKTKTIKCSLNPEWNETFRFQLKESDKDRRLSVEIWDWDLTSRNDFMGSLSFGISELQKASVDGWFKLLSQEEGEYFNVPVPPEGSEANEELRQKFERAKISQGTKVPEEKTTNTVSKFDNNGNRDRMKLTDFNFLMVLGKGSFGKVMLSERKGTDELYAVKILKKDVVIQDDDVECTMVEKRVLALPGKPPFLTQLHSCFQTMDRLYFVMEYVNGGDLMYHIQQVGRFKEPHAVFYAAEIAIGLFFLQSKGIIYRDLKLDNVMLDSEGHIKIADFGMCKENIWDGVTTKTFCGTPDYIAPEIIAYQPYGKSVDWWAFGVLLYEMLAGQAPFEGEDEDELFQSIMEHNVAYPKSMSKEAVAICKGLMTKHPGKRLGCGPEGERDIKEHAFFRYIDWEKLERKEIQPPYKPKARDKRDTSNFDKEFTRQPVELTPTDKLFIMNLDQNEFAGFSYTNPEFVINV
T4 sequence (P05771 other isoform, or with tags, fused parts or gaps limits assumed): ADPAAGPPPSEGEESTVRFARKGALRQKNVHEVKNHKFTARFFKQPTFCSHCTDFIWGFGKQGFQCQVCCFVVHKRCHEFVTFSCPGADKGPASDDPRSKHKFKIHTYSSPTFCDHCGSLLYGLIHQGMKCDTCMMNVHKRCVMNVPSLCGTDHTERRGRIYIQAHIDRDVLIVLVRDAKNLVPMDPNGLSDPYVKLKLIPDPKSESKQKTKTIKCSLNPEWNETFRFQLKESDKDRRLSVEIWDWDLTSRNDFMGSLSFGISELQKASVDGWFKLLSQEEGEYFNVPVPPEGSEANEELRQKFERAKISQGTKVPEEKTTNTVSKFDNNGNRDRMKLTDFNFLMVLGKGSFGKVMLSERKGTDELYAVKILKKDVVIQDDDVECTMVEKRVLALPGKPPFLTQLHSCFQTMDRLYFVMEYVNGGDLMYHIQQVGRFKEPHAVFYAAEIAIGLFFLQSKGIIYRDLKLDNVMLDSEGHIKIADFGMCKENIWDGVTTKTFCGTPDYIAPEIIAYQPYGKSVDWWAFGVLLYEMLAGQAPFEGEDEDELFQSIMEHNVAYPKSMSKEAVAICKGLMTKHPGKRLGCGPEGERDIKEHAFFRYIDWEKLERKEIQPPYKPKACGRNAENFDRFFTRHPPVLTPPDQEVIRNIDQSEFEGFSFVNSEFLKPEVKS

Binder: Ac-KDAQNLIGISI-NH2 (also called peptide PRE 4) [PRE 4]
- relative binding capacity (100-%n, DMSO subtracted) (PKC-δ (purified isoform) [1]): 29.2%
- relative binding capacity (100-%n, DMSO subtracted) (PKC-α (purified isoform)): 22.8%
- relative binding capacity (100-%n, DMSO subtracted) (PKC-δ (purified isoform) [2]): 17.3%
- relative binding capacity (100-%n, DMSO subtracted) [3]: 6.02%
- relative binding capacity (100-%n, DMSO subtracted) [4]: 7.46%
- relative binding capacity (100-%n, DMSO subtracted) [5]: 13.5%
- relative binding capacity (100-%n, DMSO subtracted) [6]: 1.18%
- Band Intensity [7]: 0
- Inhibition (%) [7]: 100%
- Relative Intensity (%) [7]: 0%
- Band Intensity [8]: 153
- Inhibition (%) [8]: 46.6%
- Relative Intensity (%) [8]: 53.3%
- Band Intensity [9]: 0
- Inhibition (%) [9]: 100%
- Relative Intensity (%) [9]: 0%
- Band Intensity [10]: 0
- Inhibition (%) [10]: 100%
- Relative Intensity (%) [10]: 0%

Reference: patent US20110039770A1 (PHARMAGAP, published 2011)
